Literature values in PMC3423493.
pKd: −log10 of the molar value.

Legend:
[1] = biological target: Sclerostin (Homo sapiens) (UniProt Q9BQB4)
[2] = biological target: BMP2 (Homo sapiens) (UniProt P12643)
Sequence of UniProt P12643 (P12643 283-396): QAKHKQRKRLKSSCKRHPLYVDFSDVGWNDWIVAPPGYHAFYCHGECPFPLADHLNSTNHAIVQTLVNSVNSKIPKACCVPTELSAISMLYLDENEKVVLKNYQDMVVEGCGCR

Sequence of UniProt Q9BQB4 (Q9BQB4 24-213): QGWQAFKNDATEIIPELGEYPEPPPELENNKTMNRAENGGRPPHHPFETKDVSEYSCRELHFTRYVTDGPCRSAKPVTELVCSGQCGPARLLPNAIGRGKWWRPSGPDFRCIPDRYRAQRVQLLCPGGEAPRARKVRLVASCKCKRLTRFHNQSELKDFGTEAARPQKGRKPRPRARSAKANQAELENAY

pKd [1]: 8.53
pKd [2]: 10.70
Substance: Noggin (from UniProt Q13253)
